Measured values as given in US10919943B2, “Mutant proteins enabling agrochemical control of plant gene expression” (The Regents of the University of California, priority 2016, dated 2021).

T1: PYR1 (Arabidopsis thaliana, UniProt O49686)
T1 construct: expressed in transfected cells; host or cells: S. cerevisiae strain Y190
T1 sequence (O49686 1-191): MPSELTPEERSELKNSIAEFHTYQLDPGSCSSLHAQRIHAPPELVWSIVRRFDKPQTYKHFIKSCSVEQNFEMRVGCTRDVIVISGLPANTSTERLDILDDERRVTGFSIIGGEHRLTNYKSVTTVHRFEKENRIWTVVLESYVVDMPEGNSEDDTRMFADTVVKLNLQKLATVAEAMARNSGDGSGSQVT


The molecules below were run against T1, PYR1 (assay: Yeast two hybrid of pACT-HAB1 site saturation mutants with pBD-PYR1 on 10 μM ABA, β-galactosidase staining). Conditions: S. cerevisiae Y190, 10 μM ABA; dead = lack of detectable staining in comparison to wild type control.
Format: cell-based
Parameters: key: x: Mutations in HAB1 that disrupt HAB1 interaction with PYR1
In short: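 Read-out is β-galactosidase staining of chloroform-lysed Y190 colonies grown 2 days at 30 °C on SD (-Leu,-Trp) plus 10 μM ABA. Each pACT-HAB1 single-substitution mutant (N-terminally truncated by three residues) was paired with pBD-PYR1; absence of detectable staining relative to wild type scored as dead.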

Row | Mutations in HAB1 that disrupt HAB1 interaction with PYR1 | Molecule
1 | x | G246S: HAB1 mutant (protein, UniProt Q9CAJ0 23-511, looked up, variant G246S) Protein phosphatase 2C 16: SPVEITQLKNVTDAADLLSDSENQSFCNGGTECTMEDVSELEEVGEQDLLKTLSDTRSGSSNVFDEDDVLSVVEDNSAVISEGLLVVDAGSELSLSNTAMEIDNGRVLATAIIVGESSIEQVPTAEVLIAGVNQDTNTSEVVIRLPDENSNHLVKGRSVYELDCIPLWGTVSIQGNRSEMEDAFAVSPHFLKLPIKMLMGDHEGMSPSLTHLTGHFFGVYDGHSGHKVADYCRDRLHFALAEEIERIKDELCKRNTGEGRQVQWDKVFTSCFLTVDGEIEGKIGRAVVGSSDKVLEAVASETVGSTAVVALVCSSHIVVSNCGDSRAVLFRGKEAMPLSVDHKPDREDEYARIENAGGKVIQWQGARVFGVLAMSRSIGDRYLKPYVIPEPEVTFMPRSREDECLILASDGLWDVMNNQEVCEIARRRILMWHKKNGAPPLAERGKGIDPACQAAADYLSMLALQKGSKDNISIIVIDLKAQRKFKTRT
2 | x | G246T: HAB1 mutant (protein, UniProt Q9CAJ0 23-511, looked up, variant G246T) Protein phosphatase 2C 16: SPVEITQLKNVTDAADLLSDSENQSFCNGGTECTMEDVSELEEVGEQDLLKTLSDTRSGSSNVFDEDDVLSVVEDNSAVISEGLLVVDAGSELSLSNTAMEIDNGRVLATAIIVGESSIEQVPTAEVLIAGVNQDTNTSEVVIRLPDENSNHLVKGRSVYELDCIPLWGTVSIQGNRSEMEDAFAVSPHFLKLPIKMLMGDHEGMSPSLTHLTGHFFGVYDGHTGHKVADYCRDRLHFALAEEIERIKDELCKRNTGEGRQVQWDKVFTSCFLTVDGEIEGKIGRAVVGSSDKVLEAVASETVGSTAVVALVCSSHIVVSNCGDSRAVLFRGKEAMPLSVDHKPDREDEYARIENAGGKVIQWQGARVFGVLAMSRSIGDRYLKPYVIPEPEVTFMPRSREDECLILASDGLWDVMNNQEVCEIARRRILMWHKKNGAPPLAERGKGIDPACQAAADYLSMLALQKGSKDNISIIVIDLKAQRKFKTRT
3 | x | G246R: HAB1 mutant (protein, UniProt Q9CAJ0 23-511, looked up, variant G246R) Protein phosphatase 2C 16: SPVEITQLKNVTDAADLLSDSENQSFCNGGTECTMEDVSELEEVGEQDLLKTLSDTRSGSSNVFDEDDVLSVVEDNSAVISEGLLVVDAGSELSLSNTAMEIDNGRVLATAIIVGESSIEQVPTAEVLIAGVNQDTNTSEVVIRLPDENSNHLVKGRSVYELDCIPLWGTVSIQGNRSEMEDAFAVSPHFLKLPIKMLMGDHEGMSPSLTHLTGHFFGVYDGHRGHKVADYCRDRLHFALAEEIERIKDELCKRNTGEGRQVQWDKVFTSCFLTVDGEIEGKIGRAVVGSSDKVLEAVASETVGSTAVVALVCSSHIVVSNCGDSRAVLFRGKEAMPLSVDHKPDREDEYARIENAGGKVIQWQGARVFGVLAMSRSIGDRYLKPYVIPEPEVTFMPRSREDECLILASDGLWDVMNNQEVCEIARRRILMWHKKNGAPPLAERGKGIDPACQAAADYLSMLALQKGSKDNISIIVIDLKAQRKFKTRT

Further lines, the molecule ahead of its results:

Row | Molecule | Mutations in HAB1 that disrupt HAB1 interaction with PYR1
4 | H245K: HAB1 mutant (protein, UniProt Q9CAJ0 23-511, looked up, variant H245K) Protein phosphatase 2C 16: SPVEITQLKNVTDAADLLSDSENQSFCNGGTECTMEDVSELEEVGEQDLLKTLSDTRSGSSNVFDEDDVLSVVEDNSAVISEGLLVVDAGSELSLSNTAMEIDNGRVLATAIIVGESSIEQVPTAEVLIAGVNQDTNTSEVVIRLPDENSNHLVKGRSVYELDCIPLWGTVSIQGNRSEMEDAFAVSPHFLKLPIKMLMGDHEGMSPSLTHLTGHFFGVYDGKGGHKVADYCRDRLHFALAEEIERIKDELCKRNTGEGRQVQWDKVFTSCFLTVDGEIEGKIGRAVVGSSDKVLEAVASETVGSTAVVALVCSSHIVVSNCGDSRAVLFRGKEAMPLSVDHKPDREDEYARIENAGGKVIQWQGARVFGVLAMSRSIGDRYLKPYVIPEPEVTFMPRSREDECLILASDGLWDVMNNQEVCEIARRRILMWHKKNGAPPLAERGKGIDPACQAAADYLSMLALQKGSKDNISIIVIDLKAQRKFKTRT | x
5 | G246N: HAB1 mutant (protein, UniProt Q9CAJ0 23-511, looked up, variant G246N) Protein phosphatase 2C 16: SPVEITQLKNVTDAADLLSDSENQSFCNGGTECTMEDVSELEEVGEQDLLKTLSDTRSGSSNVFDEDDVLSVVEDNSAVISEGLLVVDAGSELSLSNTAMEIDNGRVLATAIIVGESSIEQVPTAEVLIAGVNQDTNTSEVVIRLPDENSNHLVKGRSVYELDCIPLWGTVSIQGNRSEMEDAFAVSPHFLKLPIKMLMGDHEGMSPSLTHLTGHFFGVYDGHNGHKVADYCRDRLHFALAEEIERIKDELCKRNTGEGRQVQWDKVFTSCFLTVDGEIEGKIGRAVVGSSDKVLEAVASETVGSTAVVALVCSSHIVVSNCGDSRAVLFRGKEAMPLSVDHKPDREDEYARIENAGGKVIQWQGARVFGVLAMSRSIGDRYLKPYVIPEPEVTFMPRSREDECLILASDGLWDVMNNQEVCEIARRRILMWHKKNGAPPLAERGKGIDPACQAAADYLSMLALQKGSKDNISIIVIDLKAQRKFKTRT | x
6 | G246Q: HAB1 mutant (protein, UniProt Q9CAJ0 23-511, looked up, variant G246Q) Protein phosphatase 2C 16: SPVEITQLKNVTDAADLLSDSENQSFCNGGTECTMEDVSELEEVGEQDLLKTLSDTRSGSSNVFDEDDVLSVVEDNSAVISEGLLVVDAGSELSLSNTAMEIDNGRVLATAIIVGESSIEQVPTAEVLIAGVNQDTNTSEVVIRLPDENSNHLVKGRSVYELDCIPLWGTVSIQGNRSEMEDAFAVSPHFLKLPIKMLMGDHEGMSPSLTHLTGHFFGVYDGHQGHKVADYCRDRLHFALAEEIERIKDELCKRNTGEGRQVQWDKVFTSCFLTVDGEIEGKIGRAVVGSSDKVLEAVASETVGSTAVVALVCSSHIVVSNCGDSRAVLFRGKEAMPLSVDHKPDREDEYARIENAGGKVIQWQGARVFGVLAMSRSIGDRYLKPYVIPEPEVTFMPRSREDECLILASDGLWDVMNNQEVCEIARRRILMWHKKNGAPPLAERGKGIDPACQAAADYLSMLALQKGSKDNISIIVIDLKAQRKFKTRT | x
7 | G246L: HAB1 mutant (protein, UniProt Q9CAJ0 23-511, looked up, variant G246L) Protein phosphatase 2C 16: SPVEITQLKNVTDAADLLSDSENQSFCNGGTECTMEDVSELEEVGEQDLLKTLSDTRSGSSNVFDEDDVLSVVEDNSAVISEGLLVVDAGSELSLSNTAMEIDNGRVLATAIIVGESSIEQVPTAEVLIAGVNQDTNTSEVVIRLPDENSNHLVKGRSVYELDCIPLWGTVSIQGNRSEMEDAFAVSPHFLKLPIKMLMGDHEGMSPSLTHLTGHFFGVYDGHLGHKVADYCRDRLHFALAEEIERIKDELCKRNTGEGRQVQWDKVFTSCFLTVDGEIEGKIGRAVVGSSDKVLEAVASETVGSTAVVALVCSSHIVVSNCGDSRAVLFRGKEAMPLSVDHKPDREDEYARIENAGGKVIQWQGARVFGVLAMSRSIGDRYLKPYVIPEPEVTFMPRSREDECLILASDGLWDVMNNQEVCEIARRRILMWHKKNGAPPLAERGKGIDPACQAAADYLSMLALQKGSKDNISIIVIDLKAQRKFKTRT | x
8 | G246P: HAB1 mutant (protein, UniProt Q9CAJ0 23-511, looked up, variant G246P) Protein phosphatase 2C 16: SPVEITQLKNVTDAADLLSDSENQSFCNGGTECTMEDVSELEEVGEQDLLKTLSDTRSGSSNVFDEDDVLSVVEDNSAVISEGLLVVDAGSELSLSNTAMEIDNGRVLATAIIVGESSIEQVPTAEVLIAGVNQDTNTSEVVIRLPDENSNHLVKGRSVYELDCIPLWGTVSIQGNRSEMEDAFAVSPHFLKLPIKMLMGDHEGMSPSLTHLTGHFFGVYDGHPGHKVADYCRDRLHFALAEEIERIKDELCKRNTGEGRQVQWDKVFTSCFLTVDGEIEGKIGRAVVGSSDKVLEAVASETVGSTAVVALVCSSHIVVSNCGDSRAVLFRGKEAMPLSVDHKPDREDEYARIENAGGKVIQWQGARVFGVLAMSRSIGDRYLKPYVIPEPEVTFMPRSREDECLILASDGLWDVMNNQEVCEIARRRILMWHKKNGAPPLAERGKGIDPACQAAADYLSMLALQKGSKDNISIIVIDLKAQRKFKTRT | x
9 | G246A: HAB1 mutant (protein, UniProt Q9CAJ0 23-511, looked up, variant G246A) Protein phosphatase 2C 16: SPVEITQLKNVTDAADLLSDSENQSFCNGGTECTMEDVSELEEVGEQDLLKTLSDTRSGSSNVFDEDDVLSVVEDNSAVISEGLLVVDAGSELSLSNTAMEIDNGRVLATAIIVGESSIEQVPTAEVLIAGVNQDTNTSEVVIRLPDENSNHLVKGRSVYELDCIPLWGTVSIQGNRSEMEDAFAVSPHFLKLPIKMLMGDHEGMSPSLTHLTGHFFGVYDGHAGHKVADYCRDRLHFALAEEIERIKDELCKRNTGEGRQVQWDKVFTSCFLTVDGEIEGKIGRAVVGSSDKVLEAVASETVGSTAVVALVCSSHIVVSNCGDSRAVLFRGKEAMPLSVDHKPDREDEYARIENAGGKVIQWQGARVFGVLAMSRSIGDRYLKPYVIPEPEVTFMPRSREDECLILASDGLWDVMNNQEVCEIARRRILMWHKKNGAPPLAERGKGIDPACQAAADYLSMLALQKGSKDNISIIVIDLKAQRKFKTRT | x
10 | G246M: HAB1 mutant (protein, UniProt Q9CAJ0 23-511, looked up, variant G246M) Protein phosphatase 2C 16: SPVEITQLKNVTDAADLLSDSENQSFCNGGTECTMEDVSELEEVGEQDLLKTLSDTRSGSSNVFDEDDVLSVVEDNSAVISEGLLVVDAGSELSLSNTAMEIDNGRVLATAIIVGESSIEQVPTAEVLIAGVNQDTNTSEVVIRLPDENSNHLVKGRSVYELDCIPLWGTVSIQGNRSEMEDAFAVSPHFLKLPIKMLMGDHEGMSPSLTHLTGHFFGVYDGHMGHKVADYCRDRLHFALAEEIERIKDELCKRNTGEGRQVQWDKVFTSCFLTVDGEIEGKIGRAVVGSSDKVLEAVASETVGSTAVVALVCSSHIVVSNCGDSRAVLFRGKEAMPLSVDHKPDREDEYARIENAGGKVIQWQGARVFGVLAMSRSIGDRYLKPYVIPEPEVTFMPRSREDECLILASDGLWDVMNNQEVCEIARRRILMWHKKNGAPPLAERGKGIDPACQAAADYLSMLALQKGSKDNISIIVIDLKAQRKFKTRT | x
